How the values were obtained:
OVA-specific antibodies = test: Serum OVA-specific antibodies by ELISA after three weekly injections; format: in vivo, BALB/c female mice; conditions: 10 μg/mouse tail vein, once a week, three times; one week after last administration
Description: (§1) The role of folate modification in mediating humoral immunosuppression and in reducing Anti-Drug Antibodies (ADA) of biomacromolecular drugs was investragated by using ovalbumin (OVA) as a model protein. OVA has strong immunogenicity and can induce the body to produce an immune response. Repeated stimulation of mice by OVA can cause the mice to produce lots of specific antibodies. The BALB/c female mice (5 weeks old) were randomly divided into FA-OVA (folate-OVA complex. Example 1) group, OVA group and physiological saline control group, with 6 mice in each group. FA-OVA, OVA and physiological saline were administered to mice via tail vein injection at a dose of 10 μg/mouse, once a week, three times in total.
One week after the last administration, the serum of the mice was collected and was measured by ELISA for the expression of OVA-specific antibodies in the serum. The results are shown in FIG. 12, wherein FIGS. 12a, 12b, 12c and 12d show the results of OVA-specific IgE, IgG, IgG1 and IgG2a, respectively.

[1] = test system: anaphylactic shock induced by OVA (allergen); test: Prevention of anaphylactic shock: pretreatment, then OVA challenge; format: in vivo; conditions: pretreatment 10 μg OVA/mouse iv weekly x3, challenge 10 μg OVA
Experimental: The BALB/c female mice (5 weeks old) were randomly divided into FA-OVA group, OVA group and physiological saline group, with 10 mice in each group. FA-OVA or OVA or physiological saline of an equal volume was administered to the mice via tail vein injection at a dose of 10 μg OVA/mouse, once a week for a total of three times. One week after the last administration, each mouse was injected with 10 μg OVA (allergen) via tail vein. Changes in body temperature of the mice within 2 hours after OVA stimulation were recorded (FIG. 18). In the meanwhile, the serum was collected from the mice, and was measured by ELISA for the expression of OVA-specific antibodies in the serum (FIG. 19). […] Therefore, folate modification can effectively prevent anaphylactic shock induced by allergens.

[2] = test system: anaphylactic shock in OVA-sensitized mice; test: Treatment of anaphylactic shock: OVA-sensitized mice treated, then OVA challenge; format: in vivo, BALB/c female mice; conditions: 4 μg/mouse iv every two days x3, challenge 25 μg OVA
Experimental: The BALB/c female mice (5 weeks old) were subcutaneously injected with 10 μg OVA for sensitization, once a week, three times in total. One week after the last sensitization, the OVA-sensitized mice were injected with FA-OVA, OVA and physiological saline via tail vein at a dose of 4 μg/mouse, once every two days for three times in total. After the last administration, the mice were injected with 25 μg OVA (allergen) via tail vein. Changes in body temperature of the mice within 2 hours after the injection were recorded (FIG. 20). In the meanwhile, the serum was collected from the mice and was measured by ELISA for the level of the OVA-specific antibodies in the serum (FIG. 21). The mice without OVA sensitization but stimulated by tail vein injection of OVA served as the Naïve control group.

splenic B lymphocytes = test: Splenic B lymphocyte proliferation (CD86) and differentiation (GL-7) after three weekly injections; format: in vivo, BALB/c female mice; conditions: 10 μg/mouse tail vein, once a week, three times; one week after last administration
Description: as §1
One week after the last administration, the spleen lymphocyte suspension was collected and subjected to flow cytometry for analysis of proliferation and differentiation of splenic B lymphocytes. CD86 was used as a marker for cell proliferation, and GL-7 was used as germinal center B-cell surface marker. FIGS. 11a and 11b provide the CD86 flow sorting graphs and statistical analysis results of mouse spleen lymphocytes, respectively. FIGS. 11c and 11d provide the GL7 flow sorting graphs and statistical analysis results of mouse spleen lymphocytes, respectively.

[3] = Blood routine analysis one week after last administration; format: in vivo, BALB/c female mice; conditions: 10 μg/mouse tail vein weekly x3
Description: as §1
In addition, the whole blood of the mice was collected one week after the last administration for blood routine analysis.

[4] = Water solubility (observation on preparation); format: physicochemical

FA-OVA: folate-modified ovalbumin complex, EDC coupling of folic acid to OVA
expression of OVA-specific antibodies in the serum (IgE, IgG, IgG1, IgG2a) (OVA-specific antibodies): significantly inhibited
body temperature within 2 hours after OVA stimulation [1]: did not change significantly
serum OVA-specific antibodies (IgE, IgG1, IgG2a) after challenge [1]: substantially comparable to the physiological saline group
effect of treatment on anaphylaxis (body temperature curve) [2]: desensitizing effect
expressions of OVA-specific antibodies IgE, IgG1 and IgC2a in serum [2]: comparable to those in the physiological saline group and significantly decreased compared with those in the OVA group
time for body temperature to return to normal after OVA challenge [2]: ≤ 2 h
proliferation of B-cell (CD86) and differentiation into germinal center B-cell (GL-7) (splenic B lymphocytes): significantly inhibited

OVA: ovalbumin, model protein and allergen [reference compound]
expression of OVA-specific antibodies in the serum (IgE, IgG, IgG1, IgG2a) (OVA-specific antibodies): a large amount of OVA-specific antibodies
body temperature within 2 hours after OVA stimulation [1]: dropped significantly
serum OVA-specific antibodies (IgE, IgG1, IgG2a) after challenge [1]: a large number of OVA-specific antibodies
proliferation of B-cell (CD86) and differentiation into germinal center B-cell (GL-7) (splenic B lymphocytes): proliferated significantly and differentiated into the germinal center B-cell

B1: FA-OVA: folate-modified ovalbumin complex, EDC coupling of folic acid to OVA (conjugate, UniProt P01012 2-386, looked up)
Ovalbumin: GSIGAASMEFCFDVFKELKVHHANENIFYCPIAIMSALAMVYLGAKDSTRTQINKVVRFDKLPGFGDSIEAQCGTSVNVHSSLRDILNQITKPNDVYSFSLASRLYAEERYPILPEYLQCVKELYRGGLEPINFQTAADQARELINSWVESQTNGIIRNVLQPSSVDSQTAMVLVNAIVFKGLWEKAFKDEDTQAMPFRVTEQESKPVQMMYQIGLFRVASMASEKMKILELPFASGTMSMLVLLPDEVSGLEQLESIINFEKLTEWTSSNVMEERKIKVYLPRMKMEEKYNLTSVLMAMGITDVFSSSANLSGISSAESLKISQAVHAAHAEINEAGREVVGSAEAGVDAASVSEEFRADHPFLFCIKHIATNAVLFFGRCVSP
modifications: folate via EDC coupling
BASO [3]: 0 10*9/L
HCT [3]: 49.83 ± 4.53%
HGB [3]: 161.50 ± 9.26 g/L
LYMPH [3]: 2.78 ± 0.19 10*9/L
MCH [3]: 16.28 ± 0.59 pg
MCHC [3]: 325.00 ± 12.35 g/L
MCV [3]: 50.075 ± 1.37 fL
MONO [3]: 0.035 ± 0.0058 10*9/L
MPV [3]: 7.05 ± 0.058 fL
NEYT [3]: 0.94 ± 0.23 10*9/L
NRBC [3]: 0.015 ± 0.013 10*9/L
P-LCR [3]: 4.35 ± 1.01%
PCT [3]: 0.41 ± 0.042%
PDW [3]: 5.58 ± 0.096 fL
PLT [3]: 586.50 ± 59.29 10*9/L
RBC [3]: 9.96 ± 0.89 10*12/L
RDW-CV [3]: 14.78 ± 0.50%
WBC [3]: 3.77 ± 0.42 10*9/L
water solubility [4]: easily soluble in water

B2: OVA: ovalbumin, model protein and allergen (protein, UniProt P01012 2-386, looked up)
Ovalbumin: B1 Ovalbumin
anaphylactic shock / death after OVA challenge ([1]; 10 mice per group): two mice died
BASO [3]: 0 10*9/L
HCT [3]: 52.15 ± 5.97%
HGB [3]: 169.25 ± 13.45 g/L
LYMPH [3]: 2.58 ± 0.29 10*9/L
MCH [3]: 16.08 ± 0.67 pg
MCHC [3]: 325.75 ± 16.50 g/L
MCV [3]: 49.43 ± 0.43 fL
MONO [3]: 0.035 ± 0.017 10*9/L
MPV [3]: 7.10 ± 0.14 fL
NEYT [3]: 0.80 ± 0.21 10*9/L
NRBC [3]: 0.025 ± 0.013 10*9/L
P-LCR [3]: 5.15 ± 1.48%
PCT [3]: 0.45 ± 0.016%
PDW [3]: 5.53 ± 0.15 fL
PLT [3]: 635.00 ± 36.59 10*9/L
RBC [3]: 10.55 ± 1.13 10*12/L
RDW-CV [3]: 14.63 ± 0.33%
WBC [3]: 3.43 ± 0.51 10*9/L

— patent US20230381183A1, “USE OF FOLIC ACID AND FOLATE MODIFICATION IN INDUCING B-CELL IMMUNE TOLERANCE AND TARGETING mIgM-POSITIVELY-EXPRESSED B-CELL LYMPHOMA” (FUDAN UNIVERSITY, priority 2020, published 2023)
